Source: publication doi:10.1101/2023.06.05.543797, “Crystal structure of SUN1-KASH6 reveals an asymmetric LINC complex architecture compatible with nuclear membrane insertion” (bioRxiv, 2023)

Target: the molecule itself
Experiment: crystal structure; co-expressed and co-purified SUN1-KASH6 complex at 12 mg/ml; sitting drops, 20°C; crystals at pH 6.0 (1.7 Å) and pH 5.5 (2.0 Å and 2.3 Å)

B1: KASH domain of human JAW1/LRMP (amino-acids 515-555) (peptide, UniProt Q12912 515-555, looked up)
chain: TGQLFQKSVDAAPTQQEDSWTSLEHILWPFTRLRHNGPPPV
notes: JAW1/LRMP (lymphoid restricted membrane protein), human, KASH domain, amino-acids 515-555; also called KASH6; KASH6 peptide; not shown: His6, N-terminal, cleaved; MBP, N-terminal, cleaved
binding result: binds
